“And” between values parts separate entries of the source, which are not always exact repeats. Identical values can stand only once.

The conditions of the data set: whole UniProt chain shown; for Tm / unfolding enthalpy (calorimetric) / unfolding enthalpy (van 't Hoff): Thermal.
[1] abbreviates: Escherichia phage lambda, pH 5.6, 37 °C, Urea, CD, Acetic acid(deuterated) 10 mM, NaCl 100 mM, reversible: yes.
Where [2] appears, read: Escherichia phage lambda, pH 6.6, 20 °C, GdnHCl, CD, Potassium phosphate 50 mM, KCl 100 mM, reversible: yes.
The mark [3] stands for this setting: Escherichia phage lambda, pH 7, 5 °C, GdnHCl, CD, Potassium phosphate 50 mM, KCl 100 mM, reversible: yes (70-100%).
Setting [4] is: Escherichia phage lambda, pH 7, 25 °C, GdnHCl, CD, Potassium phosphate 50 mM, KCl 100 mM, reversible: yes (70-100%).
[5] abbreviates: Escherichia phage lambda, pH 7, DSC, Bis-Tris 10 mM, KCl 200 mM, reversible: yes (88%).
Where [6] appears, read: Escherichia phage lambda, pH 7, DSC, Bis-Tris 10 mM, KCl 200 mM, reversible: yes.
[7] abbreviates: Escherichia phage lambda, pH 8, CD, KD2PO4 20 mM, NaCl 100 mM, reversible: yes (>90%).
[8] abbreviates: Escherichia phage lambda, pH 8, DSC, Potassium phosphate 10 mM, KCl 200 mM, reversible: no.
The mark [9] stands for this setting: Escherichia phage lambda, pH 8, DSC, Potassium phosphate 10 mM, KCl 200 mM, reversible: yes (95%).
[10] abbreviates: Homo sapiens, pH 7, DSC, Tris-Maleate 0.02M, KCl 0.1 M, transition: 2, reversible: no.
Setting [11] is: Homo sapiens, pH 7, DSC, Tris-Maleate / KCL 20000 / 100000, transition: 2, reversible: no.

B1: Repressor protein cI wild type, P03034 (protein)
chain: MSTKKKPLTQEQLEDARRLKAIYEKKKNELGLSQESVADKMGMGQSGVGALFNGINALNAYNAALLAKILKVSVEEFSPSIAREIYEMYEAVSMQPSLRSEYEYPVFSHVQAGMFSPELRTFTKGDAERWVSTTKKASDSAFWLEVEGNSMTAPTGSKPSFPDGMLILVDPEQAVEPGDFCIARLGGDEFTFKKLIRDSGQVFLQPLNPQYPMIPCNESCSVVGKVIASQWPEETFG
For B1, the denaturant m value under setting [1] is 1.23 kcal/mol/M, the denaturant m value under setting [2] was 2.3 kcal/mol/M, the denaturant m value under setting [3] came out at 2.5 kcal/mol/M and the denaturant m value under setting [4] worked out at 2.4 kcal/mol/M. Also, the unfolding free energy is, setting by setting: under setting [1], 3.27 kcal/mol; under setting [2], 5.2 kcal/mol; under setting [3], 6 kcal/mol; under setting [4], 4.8 kcal/mol; (Escherichia phage lambda, pH 7, 25 °C, Urea, CD, Sodium phosphate 20 mM, NaCl 100 mM, reversible: Yes) 2.4 kcal/mol; (Escherichia phage lambda, pH 7.5, 22 °C, Urea, CD, Potassium phosphate 10 mM, KCl 50 mM) 0 kcal/mol. Besides, the unfolding free energy was 4.6 kcal/mol (Escherichia phage lambda, pH 8, 13 °C, Urea, CD, KD2PO4 20 mM, NaCl 100 mM, reversible: yes (>90%)); 4.3 kcal/mol (Escherichia phage lambda, pH 8, 25 °C, Urea, CD, KD2PO4 20 mM, NaCl 100 mM, reversible: yes (>90%)); 2.09 kcal/mol and 1 kcal/mol (Escherichia phage lambda, pH 8, 25 °C, Urea, Fluorescence, Potassium phosphate 0.1 M, reversible: yes); 0.86 kcal/mol (Escherichia phage lambda, pH 8, 37 °C, Urea, CD, Potassium phosphate 4 mM, NaCl 20 mM). For the same protein, the “denaturant midpoint (higher = more stable)” value is 2.52 M under setting [3] and 2.03 M under setting [4]. Moreover, the midpoint of thermal melting (Tm) (commonly the temperature at which the thermal transition is half complete) is 54 °C (Escherichia phage lambda, pH 7, CD, Potassium phosphate 10 mM, KCl 100 mM); 55 °C (Escherichia phage lambda, pH 7, CD, Potassium phosphate 50 mM, KCl 100 mM, reversible: yes (60-75%)); 55.7 °C (Escherichia phage lambda, pH 7, CD, Potassium phosphate 50 mM, KCl 100 mM, reversible: yes (70-100%)); 57 °C (Escherichia phage lambda, pH 7, CD, Potassium phosphate 50 mM, KCl 100 mM); 73.3 °C under setting [5]; 50.7 °C under setting [6]. For the same protein, the Tm (Escherichia phage lambda, pH 7.5, CD, Potassium phosphate 10 mM, KCl 50 mM) came to 49 °C; the melting temperature (Tm) under setting [7] is 57.2 °C; the midpoint of thermal melting (Tm) under setting [8] is 53.4 °C and 51.5 °C; the melting temperature (Tm) under setting [9] was 53.9 °C. Besides, the “unfolding enthalpy (calorimetric)” value reads like this: under setting [5], 82.4 kcal/mol; under setting [6], 50.9 kcal/mol; under setting [8], 65.5 kcal/mol and 65 kcal/mol; under setting [9], 53.4 kcal/mol. In addition, the “unfolding enthalpy (van 't Hoff)” value under setting [5] worked out at 348 kcal/mol; the “unfolding enthalpy (van 't Hoff)” value under setting [6] amounted to 332 kcal/mol; the “unfolding enthalpy (van 't Hoff)” value under setting [7] is 68 kcal/mol; the “unfolding enthalpy (van 't Hoff)” value under setting [8] was 69.3 kcal/mol; the “unfolding enthalpy (van 't Hoff)” value under setting [9] was 79.8 kcal/mol.

B2: Matrilysin wild type, P09237 (protein)
chain: MRLTVLCAVCLLPGSLALPLPQEAGGMSELQWEQAQDYLKRFYLYDSETKNANSLEAKLKEMQKFFGLPITGMLNSRVIEIMQKPRCGVPDVAEYSLFPNSPKWTSKVVTYRIVSYTRDLPHITVDRLVSKALNMWGKEIPLHFRKVVWGTADIMIGFARGAHGDSYPFDGPGNTLAHAFAPGTGLGGDAHFDEDERWTDGSSLGINFLYAATHELGHSLGMGHSSDPNAVMYPTYGNGDPQNFKLSQDDIKGIQKLYGKRSNSRKK
On to B2, for which, under setting [10], the Tm is 98.3 °C and the “unfolding enthalpy (calorimetric)” value was 13.7 kcal/mol. Under setting [11], the Tm was found to be 98.3 °C and the “unfolding enthalpy (calorimetric)” value amounted to 13.8 kcal/mol.

B3: Ovalbumin wild type, P01012 (protein)
chain: MGSIGAASMEFCFDVFKELKVHHANENIFYCPIAIMSALAMVYLGAKDSTRTQINKVVRFDKLPGFGDSIEAQCGTSVNVHSSLRDILNQITKPNDVYSFSLASRLYAEERYPILPEYLQCVKELYRGGLEPINFQTAADQARELINSWVESQTNGIIRNVLQPSSVDSQTAMVLVNAIVFKGLWEKAFKDEDTQAMPFRVTEQESKPVQMMYQIGLFRVASMASEKMKILELPFASGTMSMLVLLPDEVSGLEQLESIINFEKLTEWTSSNVMEERKIKVYLPRMKMEEKYNLTSVLMAMGITDVFSSSANLSGISSAESLKISQAVHAAHAEINEAGREVVGSAEAGVDAASVSEEFRADHPFLFCIKHIATNAVLFFGRCVSP
For the protein B3, the melting temperature (Tm) was found to be 72.4 °C (Gallus gallus, pH 6, DSC, Na-phosphate); 82.5 °C (Gallus gallus, pH 7, DSC, Phosphate, transition: 3, reversible: No); 78.4 °C (Gallus gallus, pH 7, DSC, Unknown, transition: 3, reversible: No).

(Values after FireProtDB.)
